In the domain aggregation screens of Martell et al. (2025):

test: soluble fraction after stress (log2 fold change); higher = more stays soluble; pooled small domains, quantitative proteomics; details: stress: 50 degC
Method in brief: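 The measure of aggregation propensity here is the base-two logarithm of the fold change in the soluble amount of each protein after stress. A higher value means more of that protein stays in solution. Stress was applied at 50°C to pooled libraries of small protein domains, read out by high-throughput quantitative proteomics.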

In order of rising “soluble fraction (log2)” value:
1. HMQYALEDDLDSAIKLLTGKGLSGTVAWGWSDTYINVGKKSYSMEFIAKMLLRLGEGSRVTIQVDPA  -4.68
2. HMKELTARQIEILDFITNYEWRHGYWPSIRNIQVQFSYKSTNAVMGHLRALERKGAIERIPGQARTFRIH  -2.97
3. HMDGVLVYKEGMTVADMATGLGKTIAQVVMKLMQLGIMANQNQSVDRETVELVALDFGYELKD  -1.76
4. HMEKTTTLFDETTNPGIIYIGKAMPTGSAISEAAAVWAIKTIDTTTDTEIKWADGVTTYTKVWNNRASYSY  -1.76
5. HMNKRYKVQVTTDNLKIRKGAGTSYPVVGHITDKGTYTIVETSGKWGKLLSGAGWIYLSYTKK  -1.76
6. HMDNLSQMQERILEFIIRSKDQSGYTPSLREIGDEVGLKAVSSVKYQLEQLKDAHYISFDANTARAIRVLI  -1.7
7. HMGQYLDAATVAAVYHAYHARNWTQATLAKELKVARPTLSNVLNGREAPSVELAARIRAFLGSPEP  -1.66
8. HMQVPVNVSMEILDWVIAHIKIDALPNQIREYLNLWVNGEKEPTFNQVEKVSKATGIPLGYFFLQTPPIED  -1.66
9. HMSVKVFRDQILLNNDSDKMLQLSFSNLFGQKVLETSISPGKSAISTGNLPPGIYFITTSPATGVMRVII  -1.12
10. HMTLALKQGSTGSTVKQVQQKLKNWGYYSGAVDGIFGSGTRKAVVLFQKRNKLTADGIVGSKTLEALGIYV  -1.05
11. HMGPEAFPVPYIVDIELDRAIYVIEQSGFIVGQKLEANDDNVPRGFVISQNPAAGTKLGPNSVVDLVISSG  -1.02
12. HMTTQVPYTAKLININGGSVVNFRKEPGMNTTIIRTYPVGTEVTVLETGVNWSKVEIDGVTGYVSSYFL  -0.699
13. HMFDVRWEQGYALAAAYAQEYGNLDVPRDYKTADGKKLGRWIQSQEQAYEQKKLSEEQISRLEMIGMQWG  -0.604
14. HMTISDTAYQAFLEQLGVGMVVEHKRFGEGVITGMPKGKIRITFEEGTKSFQARALAESGMLK  -0.59
15. HMYEDNERNLYSVVINFLNEHKIKISREAINLVINRSSGDKHNLKQELNKILNYSFSNKNITYETIEKLSN  -0.585
16. HMAKRMRNPNGYGSIVKLSGNRRNPYMVKVNTHMDERYYPVYDILGYYPTWADASIALAKYNDDPYNVS  -0.453
17. HMSREMIKSELESISGLGKSGIEKLYTHFINIENIKSASLENIRNIPGISYKVADNIYKHFH  -0.195
18. HMQKAEQIGSLLREKRKSMGLTQDELAQQVEVRRQTLADLELGKNVGSHLLIKVMEHLGVGFDLL  -0.192
19. HMNLSPADFSSVRNALGLSLSTVAKESGINRNYLSNFEKKKHFLEETAKVKLRDYYMSIDPDAFAAAL  -0.177
20. HMTVADMQQKANVKRRNSNSHEAILDATVKLLGSSGYIDFSIEKVASQAGVGKQTIYRWWPSRADLVLEVW  -0.109
21. HMSHFSERLKSLRQQSSITQAKLADDLNVTKSLISMYESGQRLPSFEMLETIADYFNVPLSSLV  -0.089
22. HMQNNIEFTVLEEDAQKRLDVLLSEKTALSRSASASLIEEGGVLVNGRKEPKKYKPVRGEIITAILPE  -0.0707
23. HMASITLDQAKEIALTHAGQTADAVWFEKAEQDYDDGILVYELEFAAKGTEYEYEIDAQTGAIREYKWDD  -0.0142
24. HMESKDIRYVQLQTVSPEEVLQALALIMPRSDVYVEPTGKLVVLHGSKETLDRAEELILALDNAV  0.0118
25. HMGQGEISVPRLEGLSLRETSELLGLFGLRLEAAGSGIALSQNPPAGARVKAGDVIQVDFGEPGN  0.0136
26. HMRRHLLEMNDAIGRLGRLISEDPADRDVAEVIWAALRGMVMGQMIMNEPIDWQRERRTLVEMAIGR  0.0146
27. HMDYYDTLGVPRNASQSDIKKAYKKQSMQHHPDRTGGDDTKFKDVNEAYQVLSNSEKKQMYDQFGTA  0.0532
28. HMYRYYSTLRPITPGAYPKPADNPAMLIHNFDNREYVGKIGREAWGYVEYNNPLTKEQIEAFDFVAE  0.0677
29. HMAPLATLEAGEDGSVKLPNLAGHSIREVAAALGGAKLSLIPIGSGTSWKQTPAPGAVLHSGDTVTVYF  0.142
30. HMINLTKVGNFISIIKLQQIWTIDELLKKVDINYDELLYLLTILSDIYSKNGEYFFDFDIDAENNKILFNN  0.42
